This is an account of results in PMC8091058, “Distinct intramolecular interactions regulate autoinhibition of vinculin binding in αT-catenin and αE-catenin” (The Journal of Biological Chemistry, 2021).

Common to all, as to assay: ITC; vinculin D1 injected into αT-catenin or αE-catenin fragment (or αT-catenin head–β-catenin complex) in the cell; 25 °C; 20 mM Hepes pH 8.0, 150 mM NaCl, 1 mM TCEP
Holding throughout (conditions): both partners purified
In general terms: In ITC the heat of successive injections is recorded.

Assay [1] has as its target T1, αT-catenin head (1–659)–β-catenin complex (Mus musculus, UniProt Q65CL1 1-659; Q02248 1-781).
T1 construct: αT-catenin, Mus musculus, head region, aa 1-659; β-catenin, Mus musculus, full length; also called αT-catenin head–β-catenin complex; source: E. coli BL21-Gold, purified; purified complex
T1 sequence (looked up) 1: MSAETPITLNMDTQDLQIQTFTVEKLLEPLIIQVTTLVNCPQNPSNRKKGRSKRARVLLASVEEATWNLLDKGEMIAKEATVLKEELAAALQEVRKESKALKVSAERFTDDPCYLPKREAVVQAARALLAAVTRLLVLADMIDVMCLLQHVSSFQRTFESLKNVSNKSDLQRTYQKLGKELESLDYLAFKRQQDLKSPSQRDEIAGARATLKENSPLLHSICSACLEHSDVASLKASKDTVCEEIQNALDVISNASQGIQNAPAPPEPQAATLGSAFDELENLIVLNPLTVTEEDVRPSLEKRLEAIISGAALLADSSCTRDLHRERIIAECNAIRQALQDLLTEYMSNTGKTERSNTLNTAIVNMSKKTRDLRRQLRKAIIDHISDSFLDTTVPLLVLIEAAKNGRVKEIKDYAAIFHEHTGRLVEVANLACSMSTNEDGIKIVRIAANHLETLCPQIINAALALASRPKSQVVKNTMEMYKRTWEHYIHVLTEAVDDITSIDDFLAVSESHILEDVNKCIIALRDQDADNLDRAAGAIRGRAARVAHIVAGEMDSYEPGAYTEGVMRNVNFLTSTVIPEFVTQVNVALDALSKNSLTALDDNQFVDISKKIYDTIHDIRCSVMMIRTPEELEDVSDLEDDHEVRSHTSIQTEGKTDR
T1 sequence (looked up) 2: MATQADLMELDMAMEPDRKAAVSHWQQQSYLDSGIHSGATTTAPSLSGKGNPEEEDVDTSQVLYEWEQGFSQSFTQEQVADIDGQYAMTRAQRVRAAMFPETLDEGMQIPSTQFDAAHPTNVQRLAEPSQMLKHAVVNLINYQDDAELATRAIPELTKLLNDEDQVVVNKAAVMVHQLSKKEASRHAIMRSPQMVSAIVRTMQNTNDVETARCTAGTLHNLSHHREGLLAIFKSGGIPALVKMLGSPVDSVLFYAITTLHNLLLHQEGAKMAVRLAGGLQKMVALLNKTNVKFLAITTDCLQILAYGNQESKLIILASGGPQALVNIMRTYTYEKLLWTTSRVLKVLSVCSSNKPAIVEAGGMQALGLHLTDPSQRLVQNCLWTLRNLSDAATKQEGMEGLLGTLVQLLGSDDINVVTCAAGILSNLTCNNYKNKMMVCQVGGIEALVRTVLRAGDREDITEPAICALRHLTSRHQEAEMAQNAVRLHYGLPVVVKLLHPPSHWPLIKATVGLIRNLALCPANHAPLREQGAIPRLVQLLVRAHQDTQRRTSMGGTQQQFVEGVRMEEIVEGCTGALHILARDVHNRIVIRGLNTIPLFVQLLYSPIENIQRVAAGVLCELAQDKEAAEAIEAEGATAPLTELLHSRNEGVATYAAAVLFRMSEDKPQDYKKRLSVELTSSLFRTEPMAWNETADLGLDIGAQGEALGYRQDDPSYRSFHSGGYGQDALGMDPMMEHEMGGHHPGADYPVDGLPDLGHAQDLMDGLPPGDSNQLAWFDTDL

Assay [2] has as its target T2, αE-catenin M1-M3 (aa 273–651) (Mus musculus, UniProt P26231 273-651).
T2 construct: αE-catenin, Mus musculus, M1-M3, aa 273-651; in pGEX-TEV; also called αE-catenin M1-M3 (273–651); source: E. coli BL21-Gold, purified (glutathione-agarose, TEV cleavage, Mono Q or Mono S, S200)
T2 sequence (looked up): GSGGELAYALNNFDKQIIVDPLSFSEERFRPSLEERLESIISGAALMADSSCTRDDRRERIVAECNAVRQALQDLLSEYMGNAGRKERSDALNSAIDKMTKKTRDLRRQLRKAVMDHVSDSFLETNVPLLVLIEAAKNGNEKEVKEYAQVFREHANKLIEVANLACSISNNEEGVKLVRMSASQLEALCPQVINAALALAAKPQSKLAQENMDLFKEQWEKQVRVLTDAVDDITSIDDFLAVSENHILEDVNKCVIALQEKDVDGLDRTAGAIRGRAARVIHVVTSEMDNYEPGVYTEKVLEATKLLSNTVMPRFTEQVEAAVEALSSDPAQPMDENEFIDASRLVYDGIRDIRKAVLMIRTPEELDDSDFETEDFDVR

For assay [3], the target named is T3, αE-catenin M1-M2 (aa 273–510) (Mus musculus, UniProt P26231 273-510).
T3 construct: αE-catenin, Mus musculus, M1-M2, aa 273-510; in pGEX-TEV; also called αE-catenin M1-M2 (273–510); source: E. coli BL21-Gold, purified (glutathione-agarose, TEV cleavage, Mono Q or Mono S, S200)
T3 sequence (looked up): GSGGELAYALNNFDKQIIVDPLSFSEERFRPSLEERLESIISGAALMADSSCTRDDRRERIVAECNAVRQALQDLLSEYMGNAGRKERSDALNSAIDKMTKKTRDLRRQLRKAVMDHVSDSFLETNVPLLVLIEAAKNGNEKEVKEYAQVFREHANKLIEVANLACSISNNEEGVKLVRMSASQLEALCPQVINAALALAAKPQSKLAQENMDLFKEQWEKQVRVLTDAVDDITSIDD

B1: vinculin D1 (aa 1–259) (domain or fragment, UniProt P12003 1-259, looked up)
chain: MPVFHTRTIESILEPVAQQISHLVIMHEEGEVDGKAIPDLTAPVSAVQAAVSNLVRVGKETVQTTEDQILKRDMPPAFIKVENACTKLVRAAQMLQADPYSVPARDYLIDGSRGILSGTSDLLLTFDEAEVRKIIRVCKGILEYLTVAEVVETMEDLVTYTKNLGPGMTKMAKMIDERQQELTHQEHRVMLVNSMNTVKELLPVLISAMKIFVTTKNTKSQGIEEALKNRNFTVEKMSAEINEIIRVLQLTSWDEDAWA
notes: vinculin D1 fragment, aa 1-259, the first 2 four-helix bundles; in pGEX-TEV; also called vinculin aa 1 to 259 (D1); vinculin N-terminus; source: E. coli BL21-Gold, purified (glutathione-agarose, TEV cleavage, Mono Q or Mono S, S200)
Consider B1, for which the Kd – broadly, the concentration at which binding is half-saturated – in assay [1] turned out to be 2.77 ± 0.875 µM; in assay [2], 10.4 ± 4.59 µM. Also, the values for the dH in assay [1], in assay [2] and in assay [3] were 4.4 ± 0.6 kcal/mol, 12.8 ± 5.2 kcal/mol and 8.7 ± 0.2 kcal/mol, respectively.
